Numbering of substitutions follows the chain as printed.
T1: human IL-28A (human) (UniProt Q8IZJ0)
T1 sequence: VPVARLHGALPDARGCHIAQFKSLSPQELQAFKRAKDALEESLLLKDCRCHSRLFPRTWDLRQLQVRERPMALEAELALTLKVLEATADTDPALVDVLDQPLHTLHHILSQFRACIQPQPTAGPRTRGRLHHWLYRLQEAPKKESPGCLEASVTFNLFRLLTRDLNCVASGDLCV

T2: mouse IL-28 (zcyto24) (mouse) (UniProt Q4VK74)
T2 sequence: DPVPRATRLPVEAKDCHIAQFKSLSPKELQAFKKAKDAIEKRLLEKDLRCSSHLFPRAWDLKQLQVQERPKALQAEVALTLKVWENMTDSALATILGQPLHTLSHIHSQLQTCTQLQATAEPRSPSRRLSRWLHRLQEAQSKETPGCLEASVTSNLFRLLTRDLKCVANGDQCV

B1: human IL-28B (ligand)
chain: T1 sequence with H7R, R49K, H51R, M71V, V95G, F112L, Y135H
B2: murine zcytor19-Ig homodimer soluble receptor (Fc fusion, mouse, UniProt Q8CGK5 21-227, looked up, not shown: a dimerising Fc or GST)
chain: RPRLAPPRNVTLFSQNFTVYLTWLPGLGSPPNVTYFVTYQSYIKTGWRPVEHCAGIKALVCPLMCLKKLNLYSKFKGRVQAASAHGRSPRVESRYLEYLFDVELAPPTLVLTQMEKILRVNATYQLPPCMPSLELKYQVEFWKEGLGSKTLFPDTPYGQPVQIPLQQGASRRHCLSARTVYTLIDIKYSQFSEPSCIFLEAPGDKRA
B3: human zcytor19-Fc homodimer soluble receptor (Fc fusion, not shown: a dimerising Fc or GST)
chain: RPRLAPPQNVTLLSQNFSVYLTWLPGLGNPQDVTYFVAYQSSPTRRRWREVEECAGTKELLCSMMCLKKQDLYNKFKGRVRTVSPSSKSPWVESEYLDYLFEVEPAPPVLVLTQTEEILSANATYQLPPCMPPLDLKYEVAFWKEGAGNKTLFPVTPHGQPVQITLQPAASEHHCLSARTIYTFSVPKYSKFSKPTCFLLEVPEANWA

What was measured:
Experiment in all cases: cell-based or functional assay
[1] = target: human IL-28 receptor (IL-28 receptor alpha subunit with CRF2-4) on 293 HEK cells (human)
human IL-29 (human) = human IL-29 (human) (UniProt Q8IU54)
human IL-28A (human) = target: T1, human IL-28A (human)
[2] = target: T2, mouse IL-28 (zcyto24) (mouse)

Sequence of human IL-29 (human) (Q8IU54 20-200): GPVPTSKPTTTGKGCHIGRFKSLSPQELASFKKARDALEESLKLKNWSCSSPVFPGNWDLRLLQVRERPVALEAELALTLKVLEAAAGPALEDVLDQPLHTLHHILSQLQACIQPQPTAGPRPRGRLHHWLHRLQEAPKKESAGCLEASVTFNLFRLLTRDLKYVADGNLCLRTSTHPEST
Sequence of human IL-28 receptor (IL-28 receptor alpha subunit with CRF2-4) on 293 HEK cells (human) (Q8IU57 whole entry, chain 1 of 2): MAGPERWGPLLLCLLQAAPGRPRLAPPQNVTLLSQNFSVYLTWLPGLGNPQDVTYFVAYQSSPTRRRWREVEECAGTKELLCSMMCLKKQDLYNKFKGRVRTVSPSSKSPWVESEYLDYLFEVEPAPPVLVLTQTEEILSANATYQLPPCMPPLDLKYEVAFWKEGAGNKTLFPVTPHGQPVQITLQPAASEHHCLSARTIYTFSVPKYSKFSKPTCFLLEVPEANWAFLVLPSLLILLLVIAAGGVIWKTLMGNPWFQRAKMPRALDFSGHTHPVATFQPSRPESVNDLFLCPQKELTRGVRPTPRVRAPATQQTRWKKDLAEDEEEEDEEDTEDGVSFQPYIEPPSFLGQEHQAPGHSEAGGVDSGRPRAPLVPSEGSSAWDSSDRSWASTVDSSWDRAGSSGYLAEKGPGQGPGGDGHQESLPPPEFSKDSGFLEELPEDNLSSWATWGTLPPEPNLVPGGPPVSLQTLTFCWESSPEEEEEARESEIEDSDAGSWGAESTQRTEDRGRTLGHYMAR
Sequence of human IL-28 receptor (IL-28 receptor alpha subunit with CRF2-4) on 293 HEK cells (human) (Q08334 whole entry, chain 2 of 2, further chain): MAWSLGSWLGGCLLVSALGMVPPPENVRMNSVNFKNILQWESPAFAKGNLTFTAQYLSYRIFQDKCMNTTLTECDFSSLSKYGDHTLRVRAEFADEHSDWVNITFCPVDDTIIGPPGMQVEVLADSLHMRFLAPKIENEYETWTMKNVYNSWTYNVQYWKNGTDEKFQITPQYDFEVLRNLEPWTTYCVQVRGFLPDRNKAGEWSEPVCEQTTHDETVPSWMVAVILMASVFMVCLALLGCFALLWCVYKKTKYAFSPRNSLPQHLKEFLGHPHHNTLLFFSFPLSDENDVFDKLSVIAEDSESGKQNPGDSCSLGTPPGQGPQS

| ISRE-luciferase signaling, fold induction over medium alone; HuIL10 at 100 ng/ml; 293 cells transfected with ISRE-Luc. and IL-28R (fold induction) [1] | Percent Inhibition of Ligand-induced ISRE Signaling by Soluble Receptors; 10 ng/ml ligand, 10 micrograms/ml soluble receptor; 293 HEK cells overexpressing zcytor19 (human IL-29 (human)) [%] | Percent Inhibition of Ligand-induced ISRE Signaling by Soluble Receptors; 10 ng/ml ligand, 10 micrograms/ml soluble receptor; 293 HEK cells overexpressing zcytor19 (human IL-28A (human)) [%] | Percent Inhibition of Ligand-induced ISRE Signaling by Soluble Receptors; 10 ng/ml ligand, 10 micrograms/ml soluble receptor; 293 HEK cells overexpressing zcytor19 [2] [%] | ISRE-luciferase signaling, fold induction over medium alone; Zcyto10 at 125 ng/ml; 293 cells transfected with ISRE-Luc. and IL-28R (fold induction) [1] | ISRE-luciferase signaling, fold induction over medium alone; IL-28B at 125 ng/ml; 293 cells transfected with ISRE-Luc. and IL-28R (fold induction) [1] | Molecule |
| --- | --- | --- | --- | --- | --- | --- |
| 0.5 | – | – | – | – | – | huIL10 (from UniProt P22301 19-178) (ligand) |
| – | 79 | 80 | 82 | – | – | human CRF2-4-Fc homodimer soluble receptor (Fc fusion) |
| – | 16 | 16 | 47 | – | – | human zcytor19-Fc/human CRF2-4-Fc heterodimer soluble receptor (Fc fusion) |
| – | – | – | – | 1 | – | zcyto10 (from UniProt Q9NYY1 25-176) (ligand) |
| – | – | – | – | – | 104 | B1 |
| – | 103 | 91 | 89 | – | – | B2 |
| – | 45 | 92 | 90 | – | – | B3 |

Reference: patent US20050037012A1
